Source: patent US20250352630A1

Biological target: Native MsrA/B on the surface of N. gonorrhoeae 1291 cells (N. gonorrhoeae strain 1291) (UniProt P14930)
Test: whole cell ELISA, N. gonorrhoeae 1291 strains

Sequence of Native MsrA/B on the surface of N. gonorrhoeae 1291 cells (N. gonorrhoeae strain 1291) (P14930 1-519, tags or fused parts left off): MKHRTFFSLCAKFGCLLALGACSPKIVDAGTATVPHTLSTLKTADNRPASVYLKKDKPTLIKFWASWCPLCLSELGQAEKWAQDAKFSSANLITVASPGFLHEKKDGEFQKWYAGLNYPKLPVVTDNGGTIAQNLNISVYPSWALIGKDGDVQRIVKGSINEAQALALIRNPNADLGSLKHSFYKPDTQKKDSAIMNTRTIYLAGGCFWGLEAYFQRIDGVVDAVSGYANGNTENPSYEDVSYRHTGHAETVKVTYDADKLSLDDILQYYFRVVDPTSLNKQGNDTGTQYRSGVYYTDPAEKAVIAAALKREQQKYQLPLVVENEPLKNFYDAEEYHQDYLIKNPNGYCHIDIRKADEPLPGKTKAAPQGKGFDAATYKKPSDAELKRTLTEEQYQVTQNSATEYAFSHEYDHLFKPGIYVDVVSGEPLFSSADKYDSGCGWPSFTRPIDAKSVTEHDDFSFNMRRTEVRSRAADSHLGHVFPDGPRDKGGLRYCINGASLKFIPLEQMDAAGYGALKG

Substance: Pre-immune mouse sera (antibody)
- ELISA titre vs whole cells: < 200 titre
